Three molecules from patent publication US20250313621A1 (NXERA PHARMA UK, published 2025) can be followed below.

What is called koff is a measure of how fast the partners let go of each other. Usually kon stands for the second-order rate constant of association. The EC50 (read off the curve) is the concentration giving half of the maximal effect.

Assay [1] concerns the target T1, Wildtype human PAR2 expressed on cells (human, UniProt P55085 37-397).
T1 construct: also called huPAR2; WT FL-huPAR2
T1 sequence: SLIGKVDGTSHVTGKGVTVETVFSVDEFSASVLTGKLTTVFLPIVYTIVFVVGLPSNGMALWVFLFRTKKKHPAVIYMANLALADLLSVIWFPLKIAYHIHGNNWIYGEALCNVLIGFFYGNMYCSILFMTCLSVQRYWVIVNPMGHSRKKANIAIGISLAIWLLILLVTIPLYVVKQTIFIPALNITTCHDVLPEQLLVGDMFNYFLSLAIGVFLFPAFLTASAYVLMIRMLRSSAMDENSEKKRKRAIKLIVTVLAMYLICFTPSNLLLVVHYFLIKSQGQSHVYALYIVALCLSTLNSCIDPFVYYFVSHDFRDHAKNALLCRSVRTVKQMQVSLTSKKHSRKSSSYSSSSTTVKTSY
As to the kind of experiment: KinExA, whole cell equilibrium, HEK-293F cells expressing WT full-length human PAR2 titrated against two fixed IgG concentrations, apparent KD; sheet also prints Expression Level: 7.951e+006 receptors/cell, Error: 2.06 %. The method, then:
(§1) For the determination of apparent KD using “native” PAR2 (i.e. PAR2 expressed at the cell surface) KinExA methodology was applied to evaluate a subset of lead clones, namely Y022870 and Y02283. […] The cells were titrated in incubation buffer (D-PBS from Gibco, 0.5% (w/v) BSA, 0.02% (v/v) Sodium azide). The experiment consisted of two titrations with a low and a high fixed IgG concentration. In both titration experiments (stoichiometry- and affinity-controlled conditions), the maximum amount of cells had to contain a high enough effective ligand concentration to completely saturate the IgG. The mixtures of IgG and cells were incubated at room temperature overnight under very gentle agitation to allow for equilibrium formation. Subsequently, the formed cell-antibody complex was removed by centrifugation. The free IgG amounts of the supernatants were determined with goat anti-human F(ab′)₂ fragment specific antibody (Jackson ImmunoResearch, #109-005-097) coated on PMMA (Polymethylmethacrylat) beads and fluorescence detection with anti-human F(ab′)₂ fragment specific Alexa Fluor 647 antibody (Jackson ImmunoResearch, #109-605-097). […] The recorded titration curves were analyzed with KinExA Pro software 4.1.11 using the n-curve analyse tool by applying the “Equilibrium, whole cell” model. […] Values are in line with SPR determined using PAR2 nanodiscs (210 and 140 pM, respectively).

The target of assay [2] is T1, Wildtype human PAR2 expressed on cells. Put plainly: KinExA, apparent KD; IgG titrated with BacMam infected HEK-293F cells expressing wild-type full-length human PAR2. The procedure: as §1
A general note: A kinetic exclusion assay measures how much of one partner remains free in solution.

The target of assay [3] is T2, Human PAR2 StaR incorporated into nanodiscs (construct not stated) (human, UniProt P55085 37-377, limits assumed).
T2 construct: also called nanodisc-embedded StaR
T2 sequence: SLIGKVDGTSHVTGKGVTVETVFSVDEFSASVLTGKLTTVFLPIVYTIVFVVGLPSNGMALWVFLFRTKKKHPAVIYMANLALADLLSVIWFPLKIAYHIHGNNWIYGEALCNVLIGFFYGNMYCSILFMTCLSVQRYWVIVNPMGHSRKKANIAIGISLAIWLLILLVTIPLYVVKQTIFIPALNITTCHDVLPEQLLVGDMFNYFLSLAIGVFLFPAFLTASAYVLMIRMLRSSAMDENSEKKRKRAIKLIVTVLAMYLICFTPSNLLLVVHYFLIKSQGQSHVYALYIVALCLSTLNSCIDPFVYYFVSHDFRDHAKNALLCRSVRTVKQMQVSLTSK
Put plainly: SPR Biacore; human PAR2 StaR incorporated into nanodiscs. (In SPR one partner is held on a chip, and binding of the other changes the refractive index at the surface.)

Assay [4] has as its target T3, Soluble PAR2 StaR (recombinant human PAR2 StaR protein in detergent, construct not stated) (human, UniProt P55085 37-377, limits assumed).
T3 construct: also called purified PAR2
T3 sequence: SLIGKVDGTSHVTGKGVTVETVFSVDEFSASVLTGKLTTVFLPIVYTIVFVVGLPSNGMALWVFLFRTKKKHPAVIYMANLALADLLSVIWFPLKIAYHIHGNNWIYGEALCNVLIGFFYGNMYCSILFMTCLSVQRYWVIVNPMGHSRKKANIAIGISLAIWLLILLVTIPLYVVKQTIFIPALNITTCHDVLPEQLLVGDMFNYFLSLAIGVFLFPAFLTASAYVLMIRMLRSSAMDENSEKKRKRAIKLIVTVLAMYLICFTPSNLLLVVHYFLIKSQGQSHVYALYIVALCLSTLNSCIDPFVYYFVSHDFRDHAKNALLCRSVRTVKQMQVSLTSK
As to the kind of experiment: SPR Biacore; soluble PAR2 StaR.

Assay [5] deals with T4, Cynomolgus PAR2 on BacMam-infected HEK293 cells (cynomolgus).
T4 construct: whole, on cells; also called cyno PAR-2; Cyno PAR2
Put plainly: flow cytometry on HEK293F-cynoPAR2 (3.0E+06 cells/mL), S/BG. A general note: In flow cytometry, cells or beads pass a laser one at a time.

Assay [6] addresses T1, Wildtype human PAR2 expressed on cells. Put plainly: KinExA, whole cell equilibrium, HEK-293F cells expressing WT full-length human PAR2 titrated against two fixed IgG concentrations, apparent KD; sheet also prints Expression Level: 2.518e+006 receptors/cell, Error: 2.56 %. The method, then: as §1

B1: Y022870 (antibody, human IgG1, lambda, V domains shown)
VH: EVQLLESGGGLVQPGGSLRLSCAASGFSFSRYAITWVRQAPGKGLEWVSTISALGLETYYAESVRGRFTISRDNSKNTLYLQMNSLRAEDTAVYYCARGFHYTHSGKRYYYPFDIWGQGTLVTVSS
VL: QSALTQPASVSGSPGQSITISCTGTSSDVGSYNLVSWYQQHPGKAPKLMIYEGSKRPSGVSNRFSGSKSGNTASLTISGLQAEDEADYYCSQYATFIAFAVFGGGTKLTVLG
notes: also called Y22870
With B1, the Kd is 373 pM in assay [1], approximately 370 pM in assay [2], 2700 pM in assay [3] and 210 pM in assay [4]. Also, the koff in assay [3] is 0.00025 s⁻¹; in assay [4], 7e-06 s⁻¹. Besides, the results for the kon in assay [3] and in assay [4] were 93000 M⁻¹ s⁻¹ and 34000 M⁻¹ s⁻¹, respectively.

B2: Y022877 (antibody, human IgG1, lambda, V domains shown)
VH: EVQLLESGGGLVQPGGSLRLSCAASGFTFSRYAMTWVRQAPGKGLEWVSTISGLGQEAYYAGSVKGRFTISRDNSKNTLYLQMNSLRAEDTAVYYCARGFHYTHSGKRYYYPFDIWGQGTLVTVSS
VL: QSALTQPASVSGSPGQSITISCTGTSSDVGSYNLVSWYQQHPGKAPKLMIYEGSKRPSGVSNRFSGSKSGNTASLTISGLQAEDEADYYCSQYATFIAFAVFGGGTKLTVLG
notes: also called Y22877
With B2, in assay [3], the Kd came to 2800 pM, the koff came out at 0.00021 s⁻¹ and the kon is 73000 M⁻¹ s⁻¹. For the same molecule, in assay [4], the Kd stood at 300 pM, the koff was found to be 8e-06 s⁻¹ and the kon was 27000 M⁻¹ s⁻¹. Besides, the “EC50 (read off the curve)” value in assay [5] is approximately 3000 pM.

B3: Y022883 (antibody, human IgG1, lambda, V domains shown)
VH: EVQLLESGGGLVQPGGSLRLSCAASGFSFTRYAISWVRQAPGKGLEWVSVISGHGSEANYAESVKGRFTISRDNSKNTLYLQMNSLRAEDTAVYYCARGFHYTHSGKRYYYPFDIWGQGTLVTVSS
VL: QSALTQPASVSGSPGQSITISCTGTSSDVGSYNLVSWYQQHPGKAPKLMIYEGSKRPSGVSNRFSGSKSGNTASLTISGLQAEDEADYYCSQYATFIAFAVFGGGTKLTVLG
notes: also called Y22883; Y02283
Take B3: in assay [2], the Kd is approximately 260 pM. Moreover, the Kd in assay [6] is 259 pM. Moreover, in assay [4], the Kd is 400 pM, the off-rate (koff) worked out at 1.2e-05 s⁻¹ and the association rate constant (kon) was 30000 M⁻¹ s⁻¹. The concentration giving a half-maximal response (EC50 (read off the curve)) in assay [5] is approximately 2000 pM.
